In assay [1] the target is T1, human PRLR ECD-Fc fusion protein (human, UniProt P16471 25-233).
T1 construct: not shown: Fc region (captured by goat anti-human Fc)
T1 sequence: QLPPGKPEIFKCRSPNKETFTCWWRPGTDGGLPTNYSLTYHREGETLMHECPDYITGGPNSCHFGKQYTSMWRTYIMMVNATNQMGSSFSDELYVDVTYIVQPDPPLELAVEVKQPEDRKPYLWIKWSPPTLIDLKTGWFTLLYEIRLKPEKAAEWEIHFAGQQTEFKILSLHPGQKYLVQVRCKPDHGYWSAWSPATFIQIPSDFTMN
The assay is described as follows: ELISA on ECD. A digest of the protocol: (§1)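 EC50 values derive from fitted binding curves of antibody serial dilutions (1 h) on captured PRLR. Detection used an HRP-conjugated secondary (1 h), TMB development for 3–5 min, an H₂SO₄ stop and a 450 nm read, with all steps in Tween/PBS pH 7.4 buffer.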
In general terms: An ELISA detects its analyte on a solid surface through an enzyme-linked reagent.

Assay [2] addresses T2, cyno PRLR ECD-his6 protein (cyno).
T2 chain: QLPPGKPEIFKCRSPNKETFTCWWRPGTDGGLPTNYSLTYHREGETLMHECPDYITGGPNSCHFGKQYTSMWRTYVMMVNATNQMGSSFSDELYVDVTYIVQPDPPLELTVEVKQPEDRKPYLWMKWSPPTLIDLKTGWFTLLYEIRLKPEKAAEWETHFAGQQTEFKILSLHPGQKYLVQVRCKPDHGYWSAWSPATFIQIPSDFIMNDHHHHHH
Put plainly: ELISA on ECD. In a few lines:
as §1

The target in assay [3] is T3, human PRLR (Biacore antigen) (human, UniProt P16471 25-234, limits assumed).
T3 construct: The construct injected over captured antibody is not described (a soluble form is likely); also called huPRLR
T3 sequence: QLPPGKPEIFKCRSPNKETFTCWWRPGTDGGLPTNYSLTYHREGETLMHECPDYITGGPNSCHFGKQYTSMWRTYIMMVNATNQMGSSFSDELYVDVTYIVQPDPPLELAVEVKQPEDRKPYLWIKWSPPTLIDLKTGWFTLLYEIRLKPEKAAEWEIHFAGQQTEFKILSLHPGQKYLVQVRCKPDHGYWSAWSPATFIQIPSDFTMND
The assay is described as follows: SPR simultaneous binding; PRLR held by surface mAb Ab39. The method, then:
(§2) Running buffer was HBS-EP+ (10 mM Hepes, pH7.4, 150 mM NaCl, 3 mM EDTA, 0.05% surfactant). Assay was performed at 12° C. using Biacore T200 and CM5 sensor chips with anti-human IgG (Pierce) amine-coupled in all 4 flow cells to ˜2000 RU.
(§3) Separate test mAbs were captured in flowcells 2, 3 & 4 (flowcell 1 was reference, no test mAb). All 4 flowcells were then blocked by injection with isotype control mAb at 50 ug/ml. All 4 flowcells were then injected with antigen or buffer only (buffer only is for double referencing, done for each mAb pair individually). All 4 flowcells were then injected with 2nd test mAb at 10 ug/ml. All 4 flowcells were then regenerated with glycine, pH1.5.

The target in assay [4] is T3, human PRLR (Biacore antigen). The assay is described as follows: SPR simultaneous binding; PRLR held by surface mAb Ab49. The method, then:
as §2, §3

Assay [5] has the same target. The assay is described as follows: SPR simultaneous binding; PRLR held by surface mAb Ab48. The method, then:
as §2, §3

Assay [6] deals with T4, cyno PRLR (Biacore antigen) (cyno, UniProt A0A2K5WXK1 25-234).
T4 construct: also called cyPRLR
T4 sequence: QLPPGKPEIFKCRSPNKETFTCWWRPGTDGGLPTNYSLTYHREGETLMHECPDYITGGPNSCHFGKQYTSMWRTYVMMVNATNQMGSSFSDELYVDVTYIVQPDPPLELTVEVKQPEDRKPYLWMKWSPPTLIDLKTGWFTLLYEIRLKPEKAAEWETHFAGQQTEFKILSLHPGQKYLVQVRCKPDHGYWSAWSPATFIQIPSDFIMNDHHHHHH
The assay is described as follows: SPR Biacore. A digest of the protocol: (§4)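 Association rate, dissociation rate and dissociation constant were measured by surface plasmon resonance on a Biacore instrument. PRLR antigen was tested at 600 nM, 66.67 nM and 7.41 nM, a 3-point, 9-fold dilution series. Constants came from a 1:1 binding model fit (local Rmax, mass-transport term included) in Biacore T200 Evaluation Software.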
A general note: Surface plasmon resonance follows binding to a sensor surface in real time, without labels.

Assay [7] deals with T3, human PRLR (Biacore antigen). The assay is described as follows: SPR Biacore. In a few lines:
as §4

Assay [8] has the same target. Put plainly: SPR simultaneous binding; PRLR held by surface mAb Ab21. The protocol: as §2, §3
For assay [9] the target is unchanged. Put plainly: SPR simultaneous binding; PRLR held by surface mAb Ab19. The protocol: as §2, §3
Assay [10] has the same target. Put plainly: SPR simultaneous binding; PRLR held by surface mAb Ab30. The protocol:
as §2, §3

For assay [11] the target is unchanged. Put plainly: SPR simultaneous binding; PRLR held by surface mAb chAb5. The method, then:
as §2, §3

In assay [12] the target is cyno PRLR on Baf3-cyPRLR cells (cyno). The assay is described as follows: cell-based or functional assay.
In assay [13] the target is T5, murine PRLR (Biacore antigen) (murine, UniProt Q08501 20-229, limits assumed).
T5 construct: also called muPRLR
T5 sequence (looked up): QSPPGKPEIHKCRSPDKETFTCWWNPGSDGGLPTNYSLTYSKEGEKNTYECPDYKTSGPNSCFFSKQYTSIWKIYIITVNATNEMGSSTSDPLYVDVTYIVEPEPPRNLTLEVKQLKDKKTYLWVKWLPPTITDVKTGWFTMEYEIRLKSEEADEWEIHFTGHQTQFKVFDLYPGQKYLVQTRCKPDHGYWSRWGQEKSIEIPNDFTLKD
Put plainly: SPR Biacore. In a few lines: as §4

B1: Ab19 (antibody, human IgG1, kappa, V domains shown)
VH: EVQLVQSGAEVKKPGSSVKVSCKASGYTFTTYWMHWVRQAPGQGLEWIGEIDPSDSYSNYNQKFKDRATLTVDKSTSTAYMELSSLRSEDTAVYYCARNGGLGPAWFSYWGQGTLVTVSS
VL: DIQMTQSPSSVSASVGDRVTITCKASQYVGTAVAWYQQKPGKSPKLLIYSASNRYTGVPSRFSDSGSGTDFTLTISSLQPEDFATYFCQQYSSYPWTFGGGTKVEIKR
notes: humanized from Ab6; G1; also called Ab1 HC.1a and Ab1 LC.1a
The EC50 is the concentration needed to bring the measured effect to its halfway point. The term Kd denotes a measure of binding affinity in units of concentration. A high value points to lower affinity. For orientation: koff means the first-order rate constant of dissociation. Higher therefore signals a short-lived complex. Usually kon stands for the rate constant with which the complex forms. The low end stands for slow association, the high end for fast association. In the case of B1, the EC50 was found to be 0.0614 nM in assay [1] and 0.0575 nM in assay [2]. For the same molecule, the “solution mAb binding, % of PRLR binding” value is -2% in assay [3]; 1% in assay [4]; 0% in [5]; -1% in assay [8]; -1% in [9]; -1% in [10]. The “solution mAb binding, % of PRLR binding” value in assay [11] was 0%. For the same molecule, the dissociation constant (Kd) in assay [6] was 0.691 nM; in assay [7], 0.409 nM. Also, the koff in assay [6] was 0.000728 s⁻¹; in [7], 0.000403 s⁻¹. Further, the kon is 1.05e+06 M⁻¹ s⁻¹ in assay [6] and 985000 M⁻¹ s⁻¹ in [7]. The “Baf3-cyPRLR proliferation IC50” value in assay [12] amounted to 0.13 µg/mL.

B2: Ab21 (antibody, human IgG1, kappa, V domains shown)
VH: EVQLVQSGAEVKKPGSSVKVSCKASGYTFTTYWMHWVRQAPGQGLEWIGEIDPSDSYSNYNQKFKDRATLTVDKSTSTAYMELSSLRSEDTAVYYCARNGGLGPAWFSYWGQGTLVTVSS
VL: EIVMTQSPATLSVSPGERATLSCKASQYVGTAVAWYQQKPGQSPRLLIYSASNRYTGVPARFSDSGSGTEFTLTISSLQSEDFAVYFCQQYSSYPWTFGGGTKVEIKR
notes: humanized from Ab6; G1; also called Ab1 HC.1a and Ab1 LC.2a
B2: the values for the EC50 in assay [1] and in assay [2] were 0.0728 nM and 0.0537 nM, respectively. Also, the “solution mAb binding, % of PRLR binding” value in assay [3] is -2%; in assay [4], 0%; in assay [5], 1%; in assay [8] it was -1%; in [9] it was -1%; in assay [10], -1%. Also, in [11], the “solution mAb binding, % of PRLR binding” value was -1%. This molecule also had a Kd in [7] of 0.554 nM. The molecule further came in with a koff in assay [7] of 0.000586 s⁻¹. In addition, in assay [7], the association rate constant (kon) was determined as 1.06e+06 M⁻¹ s⁻¹. Besides, the “Baf3-cyPRLR proliferation IC50” value in assay [12] was found to be 0.15 µg/mL.

B3: Ab39 (antibody, human IgG1, kappa, V domains shown)
VH: EVQLVQSGAEVKKPGSSVKVSCKASGYTFTSYWIHWVRQAPGQGLEWIGEIDPSDSYTNYNQKFKGRATLTVDKSSSTAYMELSSLRSEDTAVYYCARSFFTNWFAYWGQGTLVTVSS
VL: DVVMTQTPLSLSVTPGQPASISCRSSQSLVHSNGNTYLHWYLQKPGQSPQLLIYKVSNRFSGVPDRFSGSGSGTDFTLKISRVEAEDVGVYFCSQSTHVPFTFGGGTKVEIKR
notes: humanized from Ab7; G1; also called Ab4 HC.1a and Ab4 LC.1a
Consider B3, for which the 50% effective concentration (EC50) came out at 0.18 nM in assay [1] and 0.46 nM in [2]. For the same molecule, the “solution mAb binding, % of PRLR binding” value is -2% in [3]; 2% in assay [4]; 2% in assay [5]; -1% in assay [8]; -1% in assay [9]; 0% in assay [10]. In assay [11], the “solution mAb binding, % of PRLR binding” value came to 0%. Besides, the Kd amounted to 4.01 nM in [6], 4.25 nM in assay [7] and 742 nM in [13]. For the same molecule, the koff is 0.000613 s⁻¹ in assay [6], 0.000715 s⁻¹ in assay [7] and 0.0427 s⁻¹ in assay [13]. Moreover, the kon was 153000 M⁻¹ s⁻¹ in [6], 168000 M⁻¹ s⁻¹ in assay [7] and 57600 M⁻¹ s⁻¹ in [13]. Also, the “Baf3-cyPRLR proliferation IC50” value in [12] was 0.25 µg/mL.

B4: Ab30 (antibody, human IgG1, kappa, V domains shown)
VH: EVQLVQSGAEVKKPGSSVKVSCKASGYTFTSFWMHWVRQAPGQGLEWIGVIDPSDTYTNYNQKFKGRATLTVDESSSTAYMELSSLRSEDTAVYYCARGDYSNWFTYWGQGTLVTVSS
VL: DVVMTQTPLSLSVTPGQPASISCRSSQRLVHSNGNTYLHWYLQKPGQSPQLLIYKVSNRFSGVPDRFSGSGSGTDFTLKISRVEAEDVGVYFCSQSTHVPWTFGGGTKVEIKR
notes: humanized from Ab5; G1; also called Ab2 HC.1a and Ab2 LC.1a
Turning to B4, the EC50 came to 0.221 nM in assay [1] and 0.1 nM in assay [2]. Further, the “solution mAb binding, % of PRLR binding” value in [3] was -2%; in [4], 6%; in assay [5] it was 6%; in assay [8] it was -1%; in assay [9], -1%; in assay [10] it was -1%. In [11], the “solution mAb binding, % of PRLR binding” value was 0%. The dissociation constant Kd was found to be 1.59 nM in assay [6], 1.29 nM in assay [7] and 40 nM in assay [13]. Further, the koff in [6] was found to be 0.000523 s⁻¹; in assay [7], 0.000437 s⁻¹; in assay [13], 0.0056 s⁻¹. Further, the kon in assay [6] amounted to 330000 M⁻¹ s⁻¹; in [7], 339000 M⁻¹ s⁻¹; in assay [13] it was 140000 M⁻¹ s⁻¹. For the same molecule, in assay [12], the “Baf3-cyPRLR proliferation IC50” value was 0.24 µg/mL.

B5: Ab40 (antibody, human IgG1, kappa)
heavy: not shown
light: DVVMTQTPLSLSVTPGQPASISCRSSQSLVHSNGNTYLHWYLQKPGQSPQLLIYKVSNRFSGVPDRFSGSGSGTDFTLKISRVEAEDVGVYYCSQSTHVPFTFGGGTKVEIKRTVAAPSVFIFPPSDEQLKSGTASVVCLLNNFYPREAKVQWKVDNALQSGNSQESVTEQDSKDSTYSLSSTLTLSKADYEKHKVYACEVTHQGLSSPVTKSFNRGEC
notes: humanized from Ab7; G1; also called Ab4 HC.1a and Ab4 LC.1b
As for B5, the EC50 turned out to be 4.41 nM in assay [1] and 0.862 nM in assay [2]. The “solution mAb binding, % of PRLR binding” value was -2% in [3]; 0% in assay [4]; 0% in assay [5]; -1% in [8]; -1% in [9]; -1% in assay [10]. Further, the “solution mAb binding, % of PRLR binding” value in [11] is 0%. In addition, the results for the Kd in [6], in assay [7] and in assay [13] were 5.38 nM, 5.38 nM and 1190 nM, respectively. For the same molecule, the dissociation rate constant (koff) came out at 0.000719 s⁻¹ in [6], 0.000823 s⁻¹ in assay [7] and 0.0534 s⁻¹ in assay [13]. The kon is 134000 M⁻¹ s⁻¹ in assay [6], 153000 M⁻¹ s⁻¹ in assay [7] and 45000 M⁻¹ s⁻¹ in assay [13]. Further, in assay [12], the “Baf3-cyPRLR proliferation IC50” value came to 0.32 µg/mL.

For the origin of these results see patent publication US20170022281A1 (AbbVie / Abbott, published 2017).
